In patent US20190175467A1, “COMPOSITION FOR THE TREATMENT OF ACNE” (ROTTAPHARM LTD., priority 2015, published 2019):

Assays:
[1] = tested on: Staphylococcus aureus ATCC 25923; assay: Determination of MIC and MBC, Staphylococcus aureus; assay type: cell-based
Description: (§1) A series of test tubes was prepared containing the culture broth inoculated with the test micro-organism and the substance to be tested was introduced at decreasing scalar concentrations. […] The test tubes in which the microbial population developed were then determined by observing visually the turbidity that is indicative of growth. Test tubes in which the substance is present at a sufficient concentration to inhibit growth remain clear. When the nature itself of the sample prevents visual reading or if it is wished to determine whether the lack of development is due to a microbiostatic or microbicidal action, transfers are made to appropriate agar media for confirmation. The concentration of sample at which growth of the micro-organisms is inhibited is considered to be the Minimum Inhibitory Concentration (MIC), while that at which viable micro-organisms are no longer present is considered to be the Minimum Bactericidal Concentration (MBC) The antibacterial activity of these substances against Staphylococcus aureus acnes ATCC 25923 and Staphylococcus epidermidis ATCC 12228 was tested according to the above-described method.

[2] = tested on: Staphylococcus epidermidis ATCC 12228; assay: Determination of MIC and MBC, Staphylococcus epidermidis; assay type: cell-based
Description: as §1

B1: Lactoferrin (protein, UniProt P02788 20-710, looked up)
Lactotransferrin: GRRRSVQWCAVSQPEATKCFQWQRNMRKVRGPPVSCIKRDSPIQCIQAIAENRADAVTLDGGFIYEAGLAPYKLRPVAAEVYGTERQPRTHYYAVAVVKKGGSFQLNELQGLKSCHTGLRRTAGWNVPIGTLRPFLNWTGPPEPIEAAVARFFSASCVPGADKGQFPNLCRLCAGTGENKCAFSSQEPYFSYSGAFKCLRDGAGDVAFIRESTVFEDLSDEAERDEYELLCPDNTRKPVDKFKDCHLARVPSHAVVARSVNGKEDAIWNLLRQAQEKFGKDKSPKFQLFGSPSGQKDLLFKDSAIGFSRVPPRIDSGLYLGSGYFTAIQNLRKSEEEVAARRARVVWCAVGEQELRKCNQWSGLSEGSVTCSSASTTEDCIALVLKGEADAMSLDGGYVYTAGKCGLVPVLAENYKSQQSSDPDPNCVDRPVEGYLAVAVVRRSDTSLTWNSVKGKKSCHTAVDRTAGWNIPMGLLFNQTGSCKFDEYFSQSCAPGSDPRSNLCALCIGDEQGENKCVPNSNERYYGYTGAFRCLAENAGDVAFVKDVTVLQNTDGNNNEAWAKDLKLADFALLCLDGKRKPVTEARSCHLAMAPNHAVVSRMDKVERLKQVLLHQQAKFGRNGSDCPDKFCLFQSETKNLLFNDNTECLARLHGKTTYEKYLGPQYVAGITNLKKCSTSPLLEACEFLRK
MIC [1]: >20 mg/mL
MIC [2]: >20 mg/mL
